Assays:
c-Src = test: phosphorylation enrichment, bacterial display (enrichment ratio); higher = better substrate or ligand; peptides without Tyr show the background
Fes = Fes (UniProt P07332); test: as above
EPHB1 = EPHB1 (UniProt P54762); test: as above
FGFR3 = FGFR3 (UniProt P22607); test: as above
FGFR1 = FGFR1 (UniProt P11362); test: as above
Fer (mouse) = test: as above
c-Abl (mouse) = test: as above
Jak2 = Jak2 (UniProt O60674); test: as above
AncSZ = test: as above
EPHB2 = EPHB2 (UniProt P29323); test: as above
Fyn = Fyn (UniProt P06241); test: as above
MERTK = MERTK (UniProt Q12866); test: as above
Hck = Hck (UniProt P08631); test: as above
Grb2 SH2 = Grb2 SH2 (UniProt P62993); test: SH2 binding enrichment of the phosphorylated peptide, bacterial display (enrichment ratio); higher = better substrate or ligand; peptides without Tyr show the background
SHP2-C SH2 = test: as above
c-Src SH2 = test: as above
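For SH2 binding enrichment of the phosphorylated peptide, bacterial display in this document: peptide library displayed on the E. coli surface as eCPX fusions, selected cells deep-sequenced, score is each peptide's frequency after selection divided by its frequency in the input.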
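For phosphorylation enrichment, bacterial display in this document: 11-residue human phosphosite peptides and single-mutation variants displayed on the E. coli surface, counted by deep sequencing, each peptide's frequency after selection divided by its frequency in the unselected input library; frequency after pTyr selection over input frequency; kinase dosed for 20-30% of maximal phosphorylation in three min.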

Sequence of FGFR1 (P11362 whole entry, looked up): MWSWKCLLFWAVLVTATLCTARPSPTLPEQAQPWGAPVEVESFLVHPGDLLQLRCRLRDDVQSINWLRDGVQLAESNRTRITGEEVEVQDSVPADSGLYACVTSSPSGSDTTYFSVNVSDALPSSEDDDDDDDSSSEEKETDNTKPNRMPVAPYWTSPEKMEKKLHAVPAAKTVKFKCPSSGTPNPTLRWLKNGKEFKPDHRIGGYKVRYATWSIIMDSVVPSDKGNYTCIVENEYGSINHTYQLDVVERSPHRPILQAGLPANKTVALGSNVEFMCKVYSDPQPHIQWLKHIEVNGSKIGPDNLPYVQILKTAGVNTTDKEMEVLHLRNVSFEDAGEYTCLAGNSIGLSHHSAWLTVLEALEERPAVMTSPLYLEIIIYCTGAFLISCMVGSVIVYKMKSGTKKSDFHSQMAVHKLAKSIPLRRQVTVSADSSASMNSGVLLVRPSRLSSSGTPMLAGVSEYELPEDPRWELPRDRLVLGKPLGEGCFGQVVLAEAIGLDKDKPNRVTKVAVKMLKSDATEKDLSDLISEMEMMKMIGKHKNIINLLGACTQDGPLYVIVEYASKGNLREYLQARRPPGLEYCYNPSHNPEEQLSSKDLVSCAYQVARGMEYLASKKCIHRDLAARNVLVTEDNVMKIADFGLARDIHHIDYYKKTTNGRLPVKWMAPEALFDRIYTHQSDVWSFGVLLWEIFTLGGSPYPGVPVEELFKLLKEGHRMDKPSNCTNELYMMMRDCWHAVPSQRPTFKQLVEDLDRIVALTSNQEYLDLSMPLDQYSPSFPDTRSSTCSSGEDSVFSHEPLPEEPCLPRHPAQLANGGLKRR
Sequence of Fes (P07332 whole entry, looked up): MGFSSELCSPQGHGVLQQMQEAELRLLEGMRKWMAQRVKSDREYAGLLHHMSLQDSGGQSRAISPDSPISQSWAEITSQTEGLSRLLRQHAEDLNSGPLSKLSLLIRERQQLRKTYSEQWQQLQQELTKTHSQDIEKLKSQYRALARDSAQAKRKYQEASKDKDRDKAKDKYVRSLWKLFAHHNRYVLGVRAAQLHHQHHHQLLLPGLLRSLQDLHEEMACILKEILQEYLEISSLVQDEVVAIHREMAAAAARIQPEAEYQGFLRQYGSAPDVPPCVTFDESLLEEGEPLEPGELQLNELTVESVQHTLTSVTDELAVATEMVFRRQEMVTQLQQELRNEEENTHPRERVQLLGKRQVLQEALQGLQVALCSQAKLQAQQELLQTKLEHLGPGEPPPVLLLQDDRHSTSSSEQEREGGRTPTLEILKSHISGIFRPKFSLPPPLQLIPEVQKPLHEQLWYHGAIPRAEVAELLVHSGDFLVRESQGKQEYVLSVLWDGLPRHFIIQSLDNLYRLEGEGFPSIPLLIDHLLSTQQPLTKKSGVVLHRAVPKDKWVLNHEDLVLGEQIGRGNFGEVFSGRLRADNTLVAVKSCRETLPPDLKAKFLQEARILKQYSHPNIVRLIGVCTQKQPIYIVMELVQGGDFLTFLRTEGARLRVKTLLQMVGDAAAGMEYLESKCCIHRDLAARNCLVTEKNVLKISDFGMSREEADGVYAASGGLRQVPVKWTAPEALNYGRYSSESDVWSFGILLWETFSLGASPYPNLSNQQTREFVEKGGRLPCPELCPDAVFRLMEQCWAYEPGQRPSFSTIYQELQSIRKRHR
Sequence of Jak2 (O60674 whole entry, looked up): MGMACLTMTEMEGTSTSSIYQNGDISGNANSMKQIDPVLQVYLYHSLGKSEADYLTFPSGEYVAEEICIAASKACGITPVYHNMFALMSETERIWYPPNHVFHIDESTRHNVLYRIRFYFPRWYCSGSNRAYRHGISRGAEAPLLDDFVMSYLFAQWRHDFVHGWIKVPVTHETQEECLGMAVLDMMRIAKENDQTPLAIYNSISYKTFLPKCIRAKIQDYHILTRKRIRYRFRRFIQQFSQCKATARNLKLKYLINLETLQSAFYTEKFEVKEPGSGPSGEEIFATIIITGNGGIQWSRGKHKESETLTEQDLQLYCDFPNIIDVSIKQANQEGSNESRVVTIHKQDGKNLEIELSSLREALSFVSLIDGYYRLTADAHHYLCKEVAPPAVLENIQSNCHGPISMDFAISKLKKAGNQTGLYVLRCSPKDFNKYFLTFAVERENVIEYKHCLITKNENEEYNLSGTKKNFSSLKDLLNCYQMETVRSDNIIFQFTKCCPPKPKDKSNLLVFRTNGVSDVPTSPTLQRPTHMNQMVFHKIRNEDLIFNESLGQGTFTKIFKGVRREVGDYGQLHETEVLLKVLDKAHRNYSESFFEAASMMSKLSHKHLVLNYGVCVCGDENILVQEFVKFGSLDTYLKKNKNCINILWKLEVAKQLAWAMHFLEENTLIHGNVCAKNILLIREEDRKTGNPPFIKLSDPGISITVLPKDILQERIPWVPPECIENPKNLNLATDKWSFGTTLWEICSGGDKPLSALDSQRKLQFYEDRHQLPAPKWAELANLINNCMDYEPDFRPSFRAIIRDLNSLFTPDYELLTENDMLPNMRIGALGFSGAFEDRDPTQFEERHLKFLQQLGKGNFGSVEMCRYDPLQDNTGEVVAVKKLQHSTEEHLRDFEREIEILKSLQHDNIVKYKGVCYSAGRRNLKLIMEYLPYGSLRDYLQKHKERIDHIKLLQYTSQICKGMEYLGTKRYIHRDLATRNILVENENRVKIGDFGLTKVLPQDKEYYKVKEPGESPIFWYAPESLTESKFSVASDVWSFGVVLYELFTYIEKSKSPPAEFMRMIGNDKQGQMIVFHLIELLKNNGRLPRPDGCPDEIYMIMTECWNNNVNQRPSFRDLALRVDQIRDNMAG
Sequence of MERTK (Q12866 whole entry, looked up): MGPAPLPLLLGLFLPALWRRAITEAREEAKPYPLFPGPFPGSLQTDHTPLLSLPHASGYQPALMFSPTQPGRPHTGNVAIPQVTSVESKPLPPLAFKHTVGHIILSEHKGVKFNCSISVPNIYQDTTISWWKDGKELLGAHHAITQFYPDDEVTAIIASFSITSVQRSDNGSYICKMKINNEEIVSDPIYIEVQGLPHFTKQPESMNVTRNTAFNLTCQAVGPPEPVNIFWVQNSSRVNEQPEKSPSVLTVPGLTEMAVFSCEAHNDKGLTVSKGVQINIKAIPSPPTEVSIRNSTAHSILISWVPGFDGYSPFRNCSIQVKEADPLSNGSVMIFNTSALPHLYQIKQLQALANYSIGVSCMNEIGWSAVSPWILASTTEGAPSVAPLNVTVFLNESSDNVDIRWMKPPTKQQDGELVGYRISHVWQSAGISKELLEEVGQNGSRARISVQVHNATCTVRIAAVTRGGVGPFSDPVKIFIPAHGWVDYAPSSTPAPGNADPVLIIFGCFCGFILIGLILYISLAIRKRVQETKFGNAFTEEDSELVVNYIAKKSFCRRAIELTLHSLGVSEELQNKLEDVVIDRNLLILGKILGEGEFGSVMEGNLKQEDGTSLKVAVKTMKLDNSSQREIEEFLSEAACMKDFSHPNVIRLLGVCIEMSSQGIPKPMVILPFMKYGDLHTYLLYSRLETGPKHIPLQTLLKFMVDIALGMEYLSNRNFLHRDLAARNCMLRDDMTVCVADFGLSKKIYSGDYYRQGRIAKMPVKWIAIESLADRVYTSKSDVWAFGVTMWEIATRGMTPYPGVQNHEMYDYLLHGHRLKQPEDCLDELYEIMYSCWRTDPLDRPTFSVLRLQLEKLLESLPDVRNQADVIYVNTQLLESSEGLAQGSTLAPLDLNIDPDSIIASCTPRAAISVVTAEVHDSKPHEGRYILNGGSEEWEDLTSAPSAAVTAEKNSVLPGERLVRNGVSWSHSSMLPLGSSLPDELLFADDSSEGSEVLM
Sequence of EPHB2 (P29323 whole entry, looked up): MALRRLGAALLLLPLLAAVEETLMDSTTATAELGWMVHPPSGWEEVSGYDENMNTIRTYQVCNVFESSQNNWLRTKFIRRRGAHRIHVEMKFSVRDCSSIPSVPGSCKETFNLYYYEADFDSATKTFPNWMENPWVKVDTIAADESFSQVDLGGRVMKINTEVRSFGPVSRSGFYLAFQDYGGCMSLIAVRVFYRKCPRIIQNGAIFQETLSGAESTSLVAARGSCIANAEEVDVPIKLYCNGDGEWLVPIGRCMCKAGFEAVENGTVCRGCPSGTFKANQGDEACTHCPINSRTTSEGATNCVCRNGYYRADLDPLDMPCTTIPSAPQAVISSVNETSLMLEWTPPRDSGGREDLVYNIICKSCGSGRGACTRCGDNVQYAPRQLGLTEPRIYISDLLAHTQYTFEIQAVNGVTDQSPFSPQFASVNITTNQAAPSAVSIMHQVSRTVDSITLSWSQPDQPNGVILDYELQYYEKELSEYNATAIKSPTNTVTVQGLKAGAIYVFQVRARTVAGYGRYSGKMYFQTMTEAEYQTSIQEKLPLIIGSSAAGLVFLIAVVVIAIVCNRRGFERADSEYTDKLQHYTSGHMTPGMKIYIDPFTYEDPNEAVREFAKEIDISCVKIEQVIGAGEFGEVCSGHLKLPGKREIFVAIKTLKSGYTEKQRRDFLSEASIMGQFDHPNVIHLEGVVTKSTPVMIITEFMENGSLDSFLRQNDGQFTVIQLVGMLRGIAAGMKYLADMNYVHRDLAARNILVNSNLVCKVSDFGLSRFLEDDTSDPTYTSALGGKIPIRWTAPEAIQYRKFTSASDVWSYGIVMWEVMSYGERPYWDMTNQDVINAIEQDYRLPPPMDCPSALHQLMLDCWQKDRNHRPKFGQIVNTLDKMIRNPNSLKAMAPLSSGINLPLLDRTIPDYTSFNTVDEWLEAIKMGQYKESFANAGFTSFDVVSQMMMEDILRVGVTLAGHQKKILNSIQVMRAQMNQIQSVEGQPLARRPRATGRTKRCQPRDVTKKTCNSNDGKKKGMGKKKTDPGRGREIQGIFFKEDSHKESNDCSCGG

SH2 binding enrichment (Grb2 SH2)	SH2 binding enrichment (SHP2-C SH2)	SH2 binding enrichment (c-Src SH2)	Sequence	phosphorylation enrichment (c-Src)	phosphorylation enrichment (Fes)	phosphorylation enrichment (EPHB1)	phosphorylation enrichment (FGFR3)	phosphorylation enrichment (FGFR1)	phosphorylation enrichment (Fer (mouse))	phosphorylation enrichment (c-Abl (mouse))	phosphorylation enrichment (Jak2)	phosphorylation enrichment (AncSZ)	phosphorylation enrichment (EPHB2)	phosphorylation enrichment (Fyn)	phosphorylation enrichment (MERTK)	phosphorylation enrichment (Hck)
0.644	0.526	0.471	IPPRRYFRSGV [STAMBP_Y36]	0.61	0.676	0.531	0.61	0.414	0.548	0.717	0.714	0.778	0.523	0.639	0.608	0.573
1.02	0.925	0.586	AVDDKYSRREE [SART1_Y685_I681V]	0.427	0.977	0.453	0.581	0.457	0.458	0.478	0.679	0.887	0.516	0.567	0.426	0.533
1.74	3.79	2.38	FQCKHYACIRQ [TIMP3_Y182_S179C_YF]	0.393	0.72	0.378	0.501	0.341	0.379	0.634	0.508	0.542	0.35	0.365	0.414	0.445
0.854	0.7	0.668	KMKGDYFCFLA [YWHAG_Y130_R132C_YF]	2.94	1.18	2.48	9.56	11.9	0.548	2.24	6.97	2.31	1.56	2.13	2.32	1
0.844	0.809	0.476	RSDSSYRMSAT [NHS_Y1532]	0.585	0.757	0.592	0.754	0.717	0.541	0.679	0.598	0.764	0.673	0.747	0.68	0.775
0.792	2.04	2.47	QDRTYYERVRT [SPEN_Y633_S635R]	1.79	0.728	0.732	0.697	0.749	2.62	0.639	0.556	0.947	0.767	1.35	0.629	5.76
5.66	1.44	0.767	ILGRTHYVNHE [NEDD4_Y627_Y627H]	0.482	0.593	0.468	0.434	0.419	0.376	0.596	0.582	0.565	0.671	0.373	0.398	0.318
1.04	0.715	1.15	KNKELYSDLFD [PDE10A_Y300]	0.6	1.14	1.03	0.66	0.556	1.84	0.918	0.898	1.13	0.794	0.68	1.35	0.958
0.813	0.876	3.04	SSQHRYSTPHT [RAF1_Y232_A237T]	0.423	0.477	0.343	0.369	0.352	0.425	0.448	0.487	0.45	0.37	0.348	0.405	0.312
0.78	0.58	0.55	ADRARYSAFGG [RBM4_Y361]	0.397	0.523	0.371	0.394	0.35	0.424	0.546	0.482	0.5	0.303	0.41	0.4	0.381
0.691	1.7	1.13	EELLHYAIVTP [POC5_Y37]	1.09	1.24	3.27	1.1	1.33	6.7	1.56	1.04	1.48	1.49	0.723	5.76	1.23
0.604	0.551	0.822	LTTPTFGDLNH [TUBB_Y222_Y222F]	0.577	0.871	0.407	0.577	0.554	1.05	0.612	0.609	0.729	0.384	0.378	0.442	0.308

Second part, the sequence before the results:

Sequence	SH2 binding enrichment (Grb2 SH2)	SH2 binding enrichment (SHP2-C SH2)	SH2 binding enrichment (c-Src SH2)	phosphorylation enrichment (c-Src)	phosphorylation enrichment (Fes)	phosphorylation enrichment (EPHB1)	phosphorylation enrichment (FGFR3)	phosphorylation enrichment (FGFR1)	phosphorylation enrichment (Fer (mouse))	phosphorylation enrichment (c-Abl (mouse))	phosphorylation enrichment (Jak2)	phosphorylation enrichment (AncSZ)	phosphorylation enrichment (EPHB2)	phosphorylation enrichment (Fyn)	phosphorylation enrichment (MERTK)	phosphorylation enrichment (Hck)
FSKTQYNQVPR [CXADR_Y318_S323R_YF]	1.16	0.899	0.64	0.484	0.502	0.409	0.447	0.312	0.367	0.6	0.491	0.482	0.361	0.437	0.428	0.457
LQKNIYSEELR [LMNA_Y211_F206L]	0.709	0.7	0.582	0.722	1.39	1.82	1.37	1.79	0.61	0.445	0.508	1.32	1.02	1.92	4.38	1.49
MMVGAYSTLEG [ECPAS_Y470]	0.777	1.44	11.7	0.704	0.839	0.735	0.676	0.538	0.743	0.57	0.557	0.765	0.545	0.607	3.09	1.07
ALAAPYVLFPG [CEFIP_Y1332_YF]	0.839	1.21	3.49	4.54	0.726	0.581	2.44	3.79	0.543	0.598	1.21	0.775	0.452	0.739	1.29	0.641
GVTLLYFGRFN [ADGRD1_Y85_YF]	1.27	1.41	0.981	0.426	1.34	0.501	0.794	0.448	0.497	0.817	1.32	1.54	0.676	0.562	0.389	0.541
TGHKGYVAFLE [CARD9_Y76]	0.739	0.81	1.93	0.394	0.666	0.392	0.507	0.414	0.403	0.617	0.635	0.674	0.466	0.358	0.396	0.494
LNRAGYCDALE [MTUS1_Y151_C148R]	0.773	0.773	0.727	0.591	1.12	0.684	0.994	0.686	0.571	0.749	1	1.06	0.988	0.537	0.484	0.424
PAVGIYNGNIN [CDCP1_Y707_D709G]	0.696	0.708	0.44	1.64	1.15	0.605	0.884	0.396	0.588	1.08	1.15	0.67	0.652	1.49	0.574	1.55
TEFIQYMRRKN [MAX_Y73_YF]	0.675	0.54	0.387	0.521	0.629	0.44	0.486	0.367	0.51	0.404	0.594	0.701	0.732	0.547	0.472	0.458
LRTAVYHEILI [CREBBP_Y1450]	0.86	0.858	3.56	12.5	3.73	1.97	12.1	16.7	14.4	2.77	3.67	3.59	1.85	7.22	7.48	7.29
GRVFVYHLSEQ [ITGAE_Y551_R552H_YF]	0.769	1.28	0.614	0.629	0.893	0.508	0.626	0.593	0.444	0.471	0.684	0.986	0.608	0.68	0.44	0.579
FATAGYGSLEA [EPHA10_Y959_A956T]	0.901	0.933	0.564	0.637	0.94	0.368	0.663	0.52	0.37	0.569	0.691	0.833	0.45	0.441	0.425	0.437
NRNVRYLTLDI [AKR1C2_Y305]	1.03	6.75	1.96	0.441	0.921	0.392	0.499	0.507	0.395	0.635	0.835	0.744	0.506	0.381	0.497	0.523
HSGVSYFINLC [IGF2R_Y2024_N2020S_YF]	0.651	0.491	0.461	0.439	1.51	0.682	0.835	0.439	0.652	1.21	1.34	1.47	0.558	0.44	0.417	0.482
TSNQEYLDLSM [FGFR1_Y766]	0.863	0.781	0.487	0.492	1.08	0.8	1.17	1.53	0.457	1.02	1.03	1.14	0.626	0.485	0.437	0.464
RHFTGCRIELQ [INSR_Y818_Y818C]	0.835	0.771	0.714	0.508	1.49	0.545	0.672	0.488	0.503	0.665	0.884	0.779	0.778	0.403	0.421	0.613
GGGMIYPLDLF	0.959	0.562	0.556	0.515	1.02	0.527	0.637	0.503	0.534	0.804	0.941	0.913	0.496	0.6	0.688	0.551

From the supplement of paper PMC10065799, “High-throughput profiling of sequence recognition by tyrosine kinases and SH2 domains using bacterial peptide display” (eLife, 2023)
